According to publication PMC8040517 (The Journal of Experimental Medicine, 2021):

Key:
Test in all cases: crystal structure
Conditions in all cases: both partners purified
[1] = molecular target: TBEV^Si EDIII (envelope domain III of tick-borne encephalitis virus, Siberian subtype, strain Vasilchenko), … (Tick-borne encephalitis virus Siberian …, UniProt Q9WBS4, strain)
[2] = molecular target: TBEV^FE EDIII-His-Avitag (envelope domain III of tick-borne encephalitis virus, Far Eastern subtype, strain … (Tick-borne encephalitis virus Far …, UniProt P07720, strain))
[3] = molecular target: TBEV^WE EDIII-His-Avitag (envelope domain III of tick-borne encephalitis virus, Western European subtype, … (Tick-borne encephalitis virus Western …, UniProt P14336))

Measured: binding result

B1: T025 Fab (antigen-binding fragment of human antibody T025, IGVH3–30/IGVK3–15) (Fab, V domains shown)
VH: QVQLVESGGGVVQPGRSLRLSCAASGFTFSNYGMHWVRQAPGKGLDWVAVISYDAISKSYADSVEGRFTISRDNSKNTLYLQMNSLRAEDSAVYYCAKSPTAIDPPFDYWGQGTLVTVSS
VL: EIVMTQSPATLSVSPGERATLSCWASQSVSSNLAWYQQKPGQAPRLLIYGASTRATGIPARFSASGSGTEFTLTISSLQSEDFAVYYCQQYNNWPPRFGQGTKVEIK
notes: not shown: 6XHis, C-terminal, kept
binds: all assays above
